± gives the standard error. Fewer inactive variants are shown than the library holds.
B1: glmS ribozyme (parent)
chain: AUAAAAGCGCCAGAACUACAGAAAUGUAGUUGACGAGGAGGAGGUUUAUCGAAUUUUCGGCGGAUGCCUCCAAA

Variants of: B1
Experiment: self-cleavage kobs at 2500 uM GlcN6P; higher = faster cleavage; RNA array
Settings: with glucosamine-6-phosphate
Outline: (§1)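 A hybridised Cy3 probe tracked barcoded ribozyme variants, transcribed in situ by E. coli RNA polymerase on sequenced MiSeq chips, at 37 °C. The variants received 40 μM to 10 mM glucosamine-6-phosphate in HEPES/KCl/Mg(OAc)2 buffer. kobs came from decay fits and kcat and KM from weighted Michaelis–Menten fits.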

Row | Variant | self-cleavage kobs at 2500 uM GlcN6P [s⁻¹]
1 | U30A G38A A39G C58A G63C C71A | < 1e-05
2 | G38A G43U A48G C58G | < 1e-05
3 | G29C A53C C67U | 0.000153 ± 4.1e-05
4 | U30G G32U | 0.000223 ± 6.5e-05
5 | U30A U46G C68G | 0.000143 ± 6.7e-05
6 | A12C U31C U54A C67A | 6.33e-05 ± 2e-05
7 | G9A A36U A53G | < 1e-05
8 | U45A U46A A52U | 8.04e-05 ± 3.5e-05
9 | C11A G51C G63U | < 1e-05
10 | A12G G40U U46A C58U | < 1e-05
11 | A36U G44C U46G | < 1e-05
12 | A12C C16U A39U | 0.00306 ± 0.00084
13 | A12C U30A C50U G51C | < 1e-05
14 | G29U A42U C68A C71U | < 1e-05
15 | A52U U57A C71U | 0.000749 ± 0.00022
16 | C50U U55A C68G | 0.00018 ± 5.2e-05
17 | A6C C11G U49G U65C C68G | < 1e-05
18 | U31G A33U C68G | < 1e-05
19 | A14U U45A C71G | 0.000196 ± 5.4e-05
20 | A42G A48U U54G | 0.000367 ± 0.0001
21 | G13A C34A A39G G59A G62C | < 1e-05
22 | A14U G43C U45G | 0.000172 ± 4.1e-05
23 | G37C G60C C67A | < 1e-05
24 | A12G U46G C71A | 5e-05 ± 2e-05
25 | U54G U57A C67G | 7.42e-05 ± 2.5e-05
26 | A6U C50U C68G C71A | 8.39e-05 ± 3e-05
27 | A12U G44U C67U | 0.0167 ± 0.0049

Row | Variant | self-cleavage kobs at 2500 uM GlcN6P [s⁻¹]
28 | G7C A33C A36C G66U | < 1e-05
29 | A33G A42G A52G G60C | < 1e-05
30 | A15C G51A C70G | 6.1e-05 ± 2.9e-05
31 | A6G C50G C61U | 0.000108 ± 3.5e-05
32 | G9C C16G G29U | < 1e-05
33 | G37U G44U C58A C71A | < 1e-05
34 | A15C G40U A42C | < 1e-05
35 | C8A C50U A64U | < 1e-05
36 | G41C G43C U55A U57G U69G | < 1e-05
37 | A6G C50U A64C C71U | < 1e-05
38 | G26U A36C | < 1e-05
39 | G7A C10A A48G | < 1e-05
40 | A14C A15C A36U G37U U49A | < 1e-05
41 | C10U C16G C61U C71U | < 1e-05
42 | A14C U45C | 0.000604 ± 0.00025
43 | G7U A33C G59U G60U | < 1e-05
44 | C34A G44U C58G | < 1e-05
45 | A12U U56A C68A | 6.47e-05 ± 1.9e-05
46 | G13A U31G A36G | < 1e-05
47 | A42U C61G U69G C70A | < 1e-05
48 | G29C A52G C67U | 7.8e-05 ± 2.1e-05
49 | G13A G44U A64U | < 1e-05
50 | G7A A36G G38A U47G A53G | < 1e-05
51 | A42C G51A A64U C68G | < 1e-05
52 | C11A G29U C58A | < 1e-05
53 | C10A A15U A42C G44C U56A C67G C70G | < 1e-05
54 | A12U A15C G44U | 4.81e-05 ± 1.7e-05

Row | Variant | self-cleavage kobs at 2500 uM GlcN6P [s⁻¹]
55 | A6G U54G C70U | 0.0001 ± 2.2e-05
56 | A6G A48G C71A | < 1e-05
57 | C10U A12G A15G G29C C34A | < 1e-05
58 | A14C G60U C68U | < 1e-05
59 | A14G G41C A42U | 3.8e-05 ± 1.4e-05
60 | G13U G66A | 0.000499 ± 0.0001
61 | A36G G40C G59U | < 1e-05
62 | G26U C67U | 0.000381 ± 0.00017
63 | A6G A14C A48G | < 1e-05
64 | A14U C50A A53G C70A | 7.44e-05 ± 1.4e-05
65 | C50A C67A C70U | 0.000109 ± 3.7e-05
66 | G35C G40U G51A U65G | < 1e-05
67 | C16G G29C A53U | 0.00684 ± 0.0022
68 | G9U A14G U45A C67A | < 1e-05
69 | G7U C16U A36G G37U G41U C61A | < 1e-05
70 | G26C U47C G60C | < 1e-05
71 | C8G C10G C70G | < 1e-05
72 | C16U A42U U54G | 0.000152 ± 3e-05
73 | U31G G32A A33C G41A A48G | < 1e-05
74 | C8G C11A G43A | < 1e-05
75 | A15G C16U U31A A39C | 0.000142 ± 2.8e-05
76 | C10A G35A G40C | < 1e-05
77 | A14U U57A A64G | 3.21e-05 ± 1.3e-05
78 | C16U G32C U54C | 5.6e-05 ± 2.1e-05
79 | G29U G32U C50G | 6.06e-05 ± 2.9e-05
80 | G9U C11U G29U A52U | < 1e-05

Variants of: B1
Experiment: self-cleavage kobs at 10000 uM GlcN6P; higher = faster cleavage; RNA array
Settings: with glucosamine-6-phosphate
Outline: as §1

Row | Variant | self-cleavage kobs at 10000 uM GlcN6P [s⁻¹]
81 | U30A G38A A39G C58A G63C C71A | < 1e-05
82 | U30G G32U | 0.000612 ± 0.00015
83 | A52U U57A C71U | 0.00177 ± 0.00039
84 | A14U G43C U45G | 0.000252 ± 6.9e-05
85 | U54G U57A C67G | 7.25e-05 ± 1.8e-05
86 | A14C U45C | 0.000368 ± 6.5e-05
87 | G13U G66A | 0.000729 ± 0.00013
88 | C8G C10G C70G | < 1e-05

From the supplement of paper PMC7125110
